{"source": "paper PMC11972413", "test_in_all_cases": "cryo-EM structure", "key": {"[1]": {"molecular_target": "adapter protein (bacteriophage φTE)"}, "[2]": {"molecular_target": "hub protein (bacteriophage φTE)"}, "[3]": {"molecular_target": "long-tail fiber (LTF) (bacteriophage φTE)"}, "[4]": {"molecular_target": "major capsid protein (MCP) (bacteriophage φTE)"}, "[5]": {"molecular_target": "minor capsid protein (DEC) (bacteriophage φTE)"}, "[6]": {"molecular_target": "portal protein (bacteriophage φTE)"}, "[7]": {"molecular_target": "puncture apparatus (PA) (bacteriophage φTE)"}, "[8]": {"molecular_target": "short-tail fiber (STF) (bacteriophage φTE)"}, "[9]": {"molecular_target": "tail sheath protein (bacteriophage φTE)"}, "[10]": {"molecular_target": "tail tube protein (bacteriophage φTE)"}, "[11]": {"molecular_target": "tape measure protein (TMP), six-stranded part along the tail (bacteriophage φTE)"}, "[12]": {"molecular_target": "tube initiator (TI) protein (bacteriophage φTE)"}}, "data": [{"substance": "adapter protein (natural protein)", "values": [{"measurement": "stoichiometry N", "setting": "[1]", "result": 12}]}, {"substance": "hub protein (natural protein)", "values": [{"measurement": "stoichiometry N", "setting": "[2]", "result": 3}]}, {"substance": "long-tail fiber (LTF) (natural protein)", "values": [{"measurement": "stoichiometry N", "setting": "[3]", "result": 3}]}, {"substance": "major capsid protein (MCP) (natural protein)", "values": [{"measurement": "stoichiometry N", "setting": "[4]", "result": 6}]}, {"substance": "minor capsid protein (DEC) (natural protein)", "values": [{"measurement": "stoichiometry N", "setting": "[5]", "result": 3}]}, {"substance": "portal protein (natural protein)", "values": [{"measurement": "stoichiometry N", "setting": "[6]", "result": 12}]}, {"substance": "puncture apparatus (PA) (natural protein)", "values": [{"measurement": "stoichiometry N", "setting": "[7]", "result": 3}, {"measurement": "stoichiometry N", "setting": "[2]", "result": 1}]}, {"substance": "short-tail fiber (STF) (natural protein)", "values": [{"measurement": "stoichiometry N", "setting": "[8]", "result": 3}]}, {"substance": "tail sheath protein (natural protein)", "values": [{"measurement": "stoichiometry N", "setting": "[9]", "result": 6}]}, {"substance": "tail tube protein (natural protein)", "values": [{"measurement": "stoichiometry N", "setting": "[10]", "result": 6}]}, {"substance": "tape measure protein (TMP), six-stranded part along the tail (natural protein)", "values": [{"measurement": "stoichiometry N", "setting": "[11]", "result": 6}]}, {"substance": "tube initiator (TI) protein (natural protein)", "values": [{"measurement": "stoichiometry N", "setting": "[12]", "result": 6}]}]}
